Values of other authors as cited in article PMC6832444.

Target: PD-L2 (Homo sapiens) (UniProt Q9BQ51)
UniProt Q9BQ51, sequence (Q9BQ51 20-220): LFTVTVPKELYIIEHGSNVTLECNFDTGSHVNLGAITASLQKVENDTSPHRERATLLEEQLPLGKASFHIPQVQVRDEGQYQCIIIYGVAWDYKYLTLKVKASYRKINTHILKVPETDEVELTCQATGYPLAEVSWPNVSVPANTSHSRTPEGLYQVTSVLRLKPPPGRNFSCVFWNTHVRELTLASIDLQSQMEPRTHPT

Kd: 140 nM
Substance: PD-1 (from UniProt Q15116)
